Measured values taken from PMC6347702.

Experiments:
[1] = substrate: OC[C@H]1OC(O)[C@H](O)[C@@H](O)[C@@H]1O; assay: spectrophotometric kinase assay, recombinant enzyme; type: biochemical, Homo sapiens; conditions: ATP-Mg2+
[2] = substrate: OC[C@H]1OC(O)[C@H](O)[C@@H](O)[C@@H]1O; assay: radiochemical kinase assay, recombinant enzyme; type: biochemical, Homo sapiens; conditions: ADP-Mg2+

B1: hexokinase 2 (∆28-hHK2) (Homo sapiens) (protein)
chain: MRLSDETLLEISKRFRKEMEKGLGATTHPTAAVKMLPTFVRSTPDGTEHGEFLALDLGGTNFRVLWVKVTDNGLQKVEMENQIYAIPEDIMRGSGTQLFDHIAECLANFMDKLQIKDKKLPLGFTFSFPCHQTKLDESFLVSWTKGFKSSGVEGRDVVALIRKAIQRRGDFDIDIVAVVNDTVGTMMTCGYDDHNCEIGLIVGTGSNACYMEEMRHIDMVEGDEGRMCINMEWGAFGDDGSLNDIRTEFDQEIDMGSLNPGKQLFEKMISGMYMGELVRLILVKMAKEELLFGGKLSPELLNTGRFETKDISDIEGEKDGIRKAREVLMRLGLDPTQEDCVATHRICQIVSTRSASLCAATLAAVLQRIKENKGEERLRSTIGVDGSVYKKHPHFAKRLHKTVRRLVPGCDVRFLRSEDGSGKGAAMVTAVAYRLADQHRARQKTLEHLQLSHDQLLEVKRRMKVEMERGLSKETHASAPVKMLPTYVCATPDGTEKGDFLALDLGGTNFRVLLVRVRNGKWGGVEMHNKIYAIPQEVMHGTGDELFDHIVQCIADFLEYMGMKGVSLPLGFTFSFPCQQNSLDESILLKWTKGFKASGCEGEDVVTLLKEAIHRREEFDLDVVAVVNDTVGTMMTCGFEDPHCEVGLIVGTGSNACYMEEMRNVELVEGEEGRMCVNMEWGAFGDNGCLDDFRTEFDVAVDELSLNPGKQRFEKMISGMYLGEIVRNILIDFTKRGLLFRGRISERLKTRGIFETKFLSQIESDCLALLQVRAILQHLGLESTCDDSIIVKEVCTVVARRAAQLCGAGMAAVVDRIRENRGLDALKVTVGVDGTLYKLHPHFAKVMHETVKDLAPKCDVSFLQSEDGSGKGAALITAVACRIREAGQR
In the case of B1, the Vmax [1] is reported as 35.4 µmol/min/mg.

B2: hexokinase 3 (hHK3) (Homo sapiens) (protein)
chain: MDSIGSSGLRQGEETLSCSEEGLPGPSDSSELVQECLQQFKVTRAQLQQIQASLLGSMEQALRGQASPAPAVRMLPTYVGSTPHGTEQGDFVVLELGATGASLRVLWVTLTGIEGHRVEPRSQEFVIPQEVMLGAGQQLFDFAAHCLSEFLDAQPVNKQGLQLGFSFSFPCHQTGLDRSTLISWTKGFRCSGVEGQDVVQLLRDAIRRQGAYNIDVVAVVNDTVGTMMGCEPGVRPCEVGLVVDTGTNACYMEEARHVAVLDEDRGRVCVSVEWGSFSDDGALGPVLTTFDHTLDHESLNPGAQRFEKMIGGLYLGELVRLVLAHLARCGVLFGGCTSPALLSQGSILLEHVAEMEDPSTGAARVHAILQDLGLSPGASDVELVQHVCAAVCTRAAQLCAAALAAVLSCLQHSREQQTLQVAVATGGRVCERHPRFCSVLQGTVMLLAPECDVSLIPSVDGGGRGVAMVTAVAARLAAHRRLLEETLAPFRLNHDQLAAVQAQMRKAMAKGLRGEASSLRMLPTFVRATPDGSERGDFLALDLGGTNFRVLLVRVTTGVQITSEIYSIPETVAQGSGQQLFDHIVDCIVDFQQKQGLSGQSLPLGFTFSFPCRQLGLDQGILLNWTKGFKASDCEGQDVVSLLREAITRRQAVELNVVAIVNDTVGTMMSCGYEDPRCEIGLIVGTGTNACYMEELRNVAGVPGDSGRMCINMEWGAFGDDGSLAMLSTRFDASVDQASINPGKQRFEKMISGMYLGEIVRHILLHLTSLGVLFRGQQIQRLQTRDIFKTKFLSEIESDSLALRQVRAILEDLGLPLTSDDALMVLEVCQAVSQRAAQLCGAGVAAVVEKIRENRGLEELAVSVGVDGTLYKLHPRFSSLVAATVRELAPRCVVTFLQSEDGSGKGAALVTAVACRLAQLTRV
B2 gave a Km [1] of 12.2 ± 1 µM.

B3: ADP-glucokinase (∆50-hADPG) (Homo sapiens) (protein)
chain: VSPEGRLAAAWDALIVRPVRRWRRVAVGVNACVDVVLSGVKLLQALGLSPGNGKDHSILHSRNDLEEAFIHFMGKGAAAERFFSDKETFHDIAQVASEFPGAQHYVGGNAALIGQKFAANSDLKVLLCGPVGPKLHELLDDNVFVPPESLQEVDEFHLILEYQAGEEWGQLKAPHANRFIFSHDLSNGAMNMLEVFVSSLEEFQPDLVVLSGLHMMEGQSKELQRKRLLEVVTSISDIPTGIPVHLELASMTNRELMSSIVHQQVFPAVTSLGLNEQELLFLTQSASGPHSSLSSWNGVPDVGMVSDILFWILKEHGRSKSRASDLTRIHFHTLVYHILATVDGHWANQLAAVAAGARVAGTQACATETIDTSRVSLRAPQEFMTSHSEAGSRIVLNPNKPVVEWHREGISFHFTPVLVCKDPIRTVGLGDAISAEGLFYSEVHPHY
Protein B3 has a Km [2] of 12.3 ± 1.3 µM.
